According to patent publication US20190000984A1:

Target: IL-4R (interleukin-4 receptor) (UniProt P24394)
Experiment: cell-based or functional assay

B1: anti-IL-4R:anti-CD63 conjugate (streptavidin-conjugated anti-IL-4R antibody combined 1:1 with biotinylated anti-CD63 antibody MEM-259) (protein, part only; not given: anti-CD63 antibody and constant regions, part only)
VH: EVQLVESGGGVVQPGRSLRLSCVASGFTFSDYGMHWVRQAPGKGLEWVAVIWYDGSIKYFRDSVKGRFTISRDNSKNTLYLQMNSLRVEDTAHYYCAKESSSWYFYHGLDVWGQGTMVTVSS
VL: EIVMTQSPLSLPVSPGEPASISCRSNQSLLHSNGNNYLAWYLQKPGQSPHLLIYLGSNRASGVPDRFSGSGSGTDFTLKISRVEAGDVGTYFCMQSLQAPPFTFGPGTKVEIKR
modifications: antibody conjugated to streptavidin (site not stated)
B1 was tested, and the attenuation of IL-4R activity against the control constructs (STAT6-luciferase) was greater than 10%.
